B1: Transcription factor Jun (Homo sapiens), P05412 (parent)
chain: MTAKMETTFYDDALNASFLPSESGPYGYSNPKILKQSMTLNLADPVGSLKPHLRAKNSDLLTSPDVGLLKLASPELERLIIQSSNGHITTTPTPTQFLCPKNVTDEQEGFAEGFVRALAELHSQNTLPSVTSAAQPVNGAGMVAPAVASVAGGSGSGGFSASLHSEPPVYANLSNFNPGALSSGGGAPSYGAAGLAFPAQPQQQQQPPHHLPQQMPVQHPRLQALKEEPQTVPEMPGETPPLSPIDMESQERIKAERKRMRNRIAASKCRKRKLERIARLEEKVKTLKAQNSELASTANMLREQVAQLKQKVMNHVNSGCQLMLTQQLQTF
partner: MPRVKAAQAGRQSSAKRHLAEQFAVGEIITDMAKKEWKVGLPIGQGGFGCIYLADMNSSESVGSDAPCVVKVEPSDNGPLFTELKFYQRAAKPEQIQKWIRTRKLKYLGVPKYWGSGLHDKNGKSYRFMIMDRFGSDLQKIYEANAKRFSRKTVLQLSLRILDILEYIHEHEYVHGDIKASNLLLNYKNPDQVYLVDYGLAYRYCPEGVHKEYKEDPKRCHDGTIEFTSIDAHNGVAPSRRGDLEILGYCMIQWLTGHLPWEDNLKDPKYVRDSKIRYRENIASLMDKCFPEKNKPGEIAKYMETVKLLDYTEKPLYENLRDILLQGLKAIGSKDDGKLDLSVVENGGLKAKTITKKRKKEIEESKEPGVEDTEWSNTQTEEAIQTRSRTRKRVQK
B2: Serine/threonine-protein kinase VRK1 (Homo sapiens), Q99986 (parent)
chain: B1 partner

Variants of: B1
Conditions: with vrk1_human VRK1, Q99986

Row | effect of a mutation on the interaction | Variant
1 | decreasing interaction | S63A;S73A

Variants of: B2
Conditions: with jun_human JUN, P05412

Row | effect of a mutation on the interaction | Variant
2 | disrupting interaction | K179E

From IntAct's records for PubMed 15378002
